# In the nanobody polyreactivity screen of Harvey et al. (2022):
# Assay: yeast display, Sf9 membrane polyspecificity reagent, FACS + sequencing; frameworks hold sequencing errors
# Method in brief: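 Nanobodies from a synthetic yeast display library (Saccharomyces cerevisiae BJ5465), induced 36–48 hours with galactose, were stained 1 hour at 4 °C with 10% biotinylated, detergent-solubilized Sf9 membrane reagent, enriched on streptavidin microbeads, then FACS-sorted. Anti-HA (expression) and streptavidin (reagent binding) fluorescence set low and high (top ~1%) gates. Polyreactivity labels come from the gate of origin. Genes were colony-PCR amplified, MiSeq 2 × 250 sequenced and filtered by CDR length.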
row,Sequence,polyreactivity (PSR sort gate)
1,QVQLVESGGGLVQAGGSLRLSCAASGSIFRANAMGWYRQAPGKEREMVAAISYSGGSTYYADSVKGRFSISRDNAKNTVYLLMNSLKPEDTAVYYCAAEFLYASVYYSYWGQGTQVTVSS,high polyreactivity
2,QVQLVESGGGLVQAGGSLRLSCAASGSIFRAYAMGWYRQAPGKEGELVATITSGGRTNYADSVKGRFTISRDNAKNTVYLQMNSLKPEDTAVYYCNADHWLYYGAGYDYWGQGTQVTVSS,low polyreactivity
3,QVQLVESGGGLVQAGGSLRLSCAASGSIFRDNGMGWYRQAPGKERELVAAINSGDSTYYADSVKGRFTISRDNAKNTVYLQMNSLKPEDTAVYYCNADDRRALSQRQYDWYDYWGQGTQVTVSS,low polyreactivity
4,QVQLVESGGGLVQAGGSLRLSCAASGSIFRDYVMGWYRQAPGKERELVAAISGNDGSTYYADSVKGRFTISRDNAKNTVYLQMNSLKPEDTAVYYCNADEASTVPLFYSYLDFDYWGQGTQVTVSS,low polyreactivity
5,QVQLVESGGGLVQAGGSLRLSCAASGSIFREYAMGWYRQAPGKERELVAAITKSGGRTYYADSVKGRFTISRDNAKNTVYLQMNSLKPEDTAVYYCAADSRNSRQHTSYNRLNYWGQGTQVTVSS,high polyreactivity
6,QVQLVESGGGLVQAGGSLRLSCAASGSIFRFNAMGWYRQAAGKERELVAAISVRGSRTYYADSVKGRFTSSSDNAKNTVYLQMNSLKPEDTAVYYCNAEALTYSSRYDYWGQGTQVTVSS,low polyreactivity
7,QVQLVESGGGLVQAGGSLRLSCAASGSIFRFYTMGWYRQAPGKQRELVAAISASGGNTYYADSVKGRFTISRDNAKNTVYLQMNSLKPEDTAVYYCARVKFTKYDYWGQGTQVTVSS,high polyreactivity
8,QVQLVESGGGLVQAGGSLRLSCAASGSIFRFYVMGWYRPAPGKERELVAAISIGGSTNYADSVKGRFTISRDNAKNTVYLQMNSLKPEDTAVYYCAADYWYGAVLPHGTEFDYWGQGTQVTVSS,low polyreactivity
9,QVQLVESGGGLVQAGGSLRLSCAASGSIFRFYVMGWYRQAPGKERELVAAISIGGSTNYADSVKGRFTISRDNAKNTVFLQMNSLKPEDTAVYYCAADYWYGAGMPHGTEFDYWGQGTQVTVSS,low polyreactivity
10,QVQLVESGGGLVQAGGSLRLSCAASGSIFRGNAMGWYRQAPGKERELVAAITRSGGRTYYADSVKGRFTISRDNANNTVYLQMNCLKPEDTAVYFCAADYPYGSPTHFDYWGQGTQVTVSS,high polyreactivity
11,QVQLVESGGGLVQAGGSLRLSCAASGSIFRGNAMGWYRQAPGKERELVAAITRSGGRTYYADTVKGRFTISRDNAKNTVYLHMNSLKPEDTAVYYCAAEYYTRLGYWGQGTQVTVSS,high polyreactivity
12,QVQLVESGGGLVQAGGSLRLSCAASGSIFRGYAMGSYRQAPGKERELVATIDSSAGSTYYADSVKGRCTISRDNAKNTVYLQMNSLKPEDTAVYYCATDPYGYYYSGFDYWGQGTQVTVSS,low polyreactivity
13,QVQLVESGGGLVQAGGSLRLSCAASGSIFRGYAMGWYRQAPEKERELVAAISRRGGSTYYADSVKGRFTISRDNAKNTVYLQMNSLKPEDTAVYYCAKDGTGAGTYDYWGQGTQVTVSS,low polyreactivity
14,QVQLVESGGGLVQAGGSLRLSCAASGSIFRGYAMGWYRQAPGKERELVAAISWSGGSTYYADSVKGRFTISRDNAKNTVYLQMNSLKPEDTAVYYCAVEYVAYLYRMDYWGQGTQVTVSS,high polyreactivity
15,QVQLVESGGGLVQAGGSLRLSCAASGSIFRGYAMGWYRQAPGRERELVAAISRSGGSTYYADSVKGRFTISRDNAKNTVYLQMNSLKPEDTAVYYCAALLRGRYRMYYWGQGTQVTVSS,high polyreactivity
16,QVQLVESGGGLVQAGGSLRLSCAASGSIFRGYAMGWYRQAPGTERELVAAITSSAGSTYYADSVKGRFTISRDNAKNTVYLQMNSLKPEDSAVYYCNKYPRASRRGFDYWGQGTQVTVSS,high polyreactivity
17,QVQLVESGGGLVQAGGSLRLSCAASGSIFRGYTMGWYIQAPGKERELVAAISTRGGSTYYADSVKGRFTISRDNSKNTVYLQMNSLKPEDTAVYYCNARSRGRASGYDYWGQGTQVTVSS,high polyreactivity
18,QVQLVESGGGLVQAGGSLRLSCAASGSIFRGYTMGWYRQAPGKERELVAAISWSGGSTYYADSVKGRFTISRDNAKNTVYLQMNSLKPEDTAVYYCAAGDYYHRIFLWYDYWGQGTQVTVSS,low polyreactivity
19,QVQLVESGGGLVQAGGSLRLSCAASGSIFRHNAMGWYRQAPGKERELVAAITSRGGSTYYADSVKGRFTISRDNAKNTVYLQMNSLKPEDTAVYYCAAGGHYYSSPGYNYWGQGTQVTVSS,high polyreactivity
20,QVQLVESGGGLVQAGGSLRLSCAASGSIFRHNVMGWYRQAPGKERELVAAISGGGGRTYYADSVKGRFTISRDNAKNTVYLQMNSLKPEDTAVYYCNAYVGLSEGDYWGQGTQVTVSS,high polyreactivity
21,QVQLVESGGGLVQAGGSLRLSCAASGSIFRINAMGWYRQAPGKEREFVAAISSRGGSTYYADSVKGRFTISRDNAKNTVYLQMKSLKPEDTAVYYCAKYASVGYGRYPYDYWGQGTQVTVSS,high polyreactivity
22,QVQLVESGGGLVQAGGSLRLSCAASGSIFRINDMGWSRQAPGKERELVAAITFSGGSTYADSVKGRFTISRDNAKNTVYLQMNSLKPEDTAVYYCNADGAYWTDYYLYDYWGQGTQVTVSS,low polyreactivity

row,Sequence,polyreactivity (PSR sort gate)
1,QVQLVESGGGLVQAGGSLRLSCAASGSIFRIYAMGWYRQAPGIERELVAAINAGGGRTYYADSVKGRFTISRDNAKNTVYLLMNSLKPEDTAVYYCAARHTEYRQESLYYWGQGTQVTVSS,low polyreactivity
2,QVQLVESGGGLVQAGGSLRLSCAASGSIFRIYAMGWYRQAPGKERELVAAIDSSGGSTYYADSVKGRFTISRDNAKNTVYFQMNSLKPEDTAVYYCNATFGYPFVDYDDYWGQGTQVTVSS,low polyreactivity
3,QVQLVESGGGLVQAGGSLRLSCAASGSIFRIYAMGWYRQAPGKERELVAAIRNSGRTYYADSVKGRFTISRDNAKNTVYLQMNSLKPEDTAVYYCAAVGGRLRGDRGGYWGQGTQVTVSS,high polyreactivity
4,QVQLVESGGGLVQAGGSLRLSCAASGSIFRIYAMGWYRQAPGKERELVAAISFSTGSRTYYADSVKGRFTISRDNAKNTVYLQMNSLKPEDTAVFYCNAESYYDYNYWGQGTQVTVSS,low polyreactivity
5,QVQLVESGGGLVQAGGSLRLSCAASGSIFRKNAMGWYRQAPGKERELVAAITGTGRTTYADSVKGRFTISRDNAKNTVYLQMNSLKPEDTAVYYCAAEYYYRYSYTNEGDYWGQGTQVTVSS,low polyreactivity
6,QVQLVESGGGLVQAGGSLRLSCAASGSIFRKNAMGWYRQAPGKERELVATISGGGSTTYADSVKGRFTISRDNAKNTVYLQMNSLKPEDTADYYCAARSTWFQIRYGYWGQGTQVTVSS,high polyreactivity
7,QVQLVESGGGLVQAGGSLRLSCAASGSIFRKNAMGWYRQAPGKETELVAAITGSGRTTYADSVKGRFTISRDNAKNTVYLQMNSLKPEDTAVYYCAADVNYYQHRLYYWGQGTQVTVSS,low polyreactivity
8,QVQLVESGGGLVQAGGSLRLSCAASGSIFRKYAMGWYRQATGKERELVAAIRSSGGSTYYADSVKGRFTISRDNAKNTVYLQMNSLKPEDTSVYYWAATTGEHEDFRGQGTQVTVSS,high polyreactivity
9,QVQLVESGGGLVQAGGSLRLSCAASGSIFRKYVMGWYRQAPGKERELVAAISGSGGRTYYADSVKGRFTISRDNAKNTVYLQMNSLKPEDTAVSYSNAYPHAYTGSTREGDYWGQGTQVTVSS,high polyreactivity
10,QVQLVESGGGLVQAGGSLRLSCAASGSIFRLYGKGLYRQAPGKEREFGASITYRGGNTYYADSVKGRFTISRDNAKNTVYLQMNSLKPEDTAVYYCARSGYQKVGGFRYDYWGQGTQVTVSS,low polyreactivity
11,QVQLVESGGGLVQAGGSLRLSCAASGSIFRNYAMGWYRQAPGKERELVARISYSGGRTHYADSVKGRFTISRDNAKNTVYLQMNSLKPEDTAVYYCAAPFHFTHFQGNYYWGQGTQVTVSS,low polyreactivity
12,QVQLVESGGGLVQAGGSLRLSCAASGSIFRNYAMGWYRQAPGKERELVAVITQRGGRTYYADSVKGRFTISRDNAKNTVYLQMNSLKPEDTAVYYCAASYRGVPEYDSWGQGTQVTVSS,low polyreactivity
13,QVQLVESGGGLVQAGGSLRLSCAASGSIFRPNVMGWYRQEPGKERELVATISWSGGSTYYADSVKGRFTISRDNASNTVYLQMNSLKPEDTAVYYCAALWPYGYWGQGTEVTVSS,low polyreactivity
14,QVQLVESGGGLVQAGGSLRLSCAASGSIFRPYAMGWYRPAPGQDRELVAAISSSGGGTYYADSVKGRFTISRDNAKKTVYLQMNSLKPEDTAVYLYGSWGQGTQVTVSS,low polyreactivity
15,QVQLVESGGGLVQAGGSLRLSCAASGSIFRPYAMGWYRQAPGKERELVAAISWRSGRTYYADSVKGRFTISRDNAKNTVYLQMNSLKPEDTAVYYCAADLASYAYRYDYWGQGTQVTVSS,high polyreactivity
16,QVQLVESGGGLVQAGGSLRLSCAASGSIFRQYAMGLSRQAPGKERELVAAITYSGGNTYYADSVKGRFTISRDNAKNPVYLQLNSLKPEDTAVYYCAADYGSRSWEYTYWGQGTQVTVSS,low polyreactivity
17,QVQLVESGGGLVQAGGSLRLSCAASGSIFRQYAMGWYRQAPPKDRELVAAISSVGRTYYADSVKGRFTISRDNAKNTVYLQMNSLKPEDTAVYYCAARPYKFARYDYWGQGTQVTVSS,high polyreactivity
18,QVQLVESGGGLVQAGGSLRLSCAASGSIFRRNSMGWYRPAPGKERELVAAISSIGSSTYYADSVKGRFTISRDNAKNTVYLQMNSLKPEDTAVYYCAALYVQGSHTYGYWGQGTQVTVSS,high polyreactivity
19,QVQLVESGGGLVQAGGSLRLSCAASGSIFRRYALGWYRQAPGKERELVAAISYSGGSTYYADSVKGRFTISRDNAKNTVYLQMNSLKPEDTAVYYCAVVTRKGLYDYWGQGTQVTGSS,high polyreactivity
20,QVQLVESGGGLVQAGGSLRLSCAASGSIFRRYAMGWYRPAPGKERELVAAITNRGGTTYYADSVKGRFTISRDNAKNTVYLQMNSLNPEDTAVYYCATALWVRYYGQGGYIRRYDYWGQGTQVTVSS,high polyreactivity
21,QVQLVESGGGLVQAGGSLRLSCAASGSIFRRYAMGWYRPAPGTERELVAAISYSGGSTYYADSVKGRFTISRDNAKNTVYLQMNSLKPEDTAVYYCAADESRYDYWGQGTQVTVSS,high polyreactivity
